Assay [1] addresses T1, recombinant Frizzled receptor 7 (FZD7) cysteine-rich domain (CRD) fused to the Fc region of human IgG (human, UniProt O75084 33-185). Briefly: ELISA, 1ug/ml (20nM) Fab [cont'd]. As for the experimental part: (§1) FIG. 2B is a table depicting the binding of purified Fabs to purified FZD7-Fc measured by ELISA. Fabs purified from 25 ml bacterial cultures were assayed for binding to FZD7-Fc fusion protein (R&D systems) and Fc protein. ELISA plates (384 well) were coated with 2 ug/ml of protein in PBS overnight at four degrees. Wells were blocked with 0.5% BSA/PBS for 1 hour at room temperature, washed three times with 0.05% Tween20/PBS (wash buffer), and then primary dilutions of Fabs in 0.5% BSA/0.05% Tween20/PBS (dilution buffer) were added at indicated concentrations. Fabs were incubated for 1 hour at room temperature, wells were washed six times, and anti-FLAG-HRP (Sigma) was added at 1:5000 in dilution buffer. Secondary antibody was incubated for 45 minutes at room temperature, and wells were washed six times and developed with TMB substrate with an acid stop. The absorbance at 450 nm was read. n.t.=not tested.
On the technique in general: An ELISA detects its analyte on a solid surface through an enzyme-linked reagent.

Assay [2] deals with T2, Fc control protein.
T2 construct: also called Fc protein; control Fc protein
The assay can be described thus: ELISA, 1ug/ml (20nM) Fab [cont'd]. As for the experimental part:
as §1

In assay [3] the target is T3, FZD7 receptor expressed on cells (full-length) (UniProt O75084 33-574, limits assumed).
T3 construct: whole, on cells; MDA MB 231 cells may carry other Frizzled receptors too; also called full-length FZD7 receptor; endogenous receptor on MDA MB 231 cells
The assay can be described thus: flow cytometry, 200 nM Fab, MDA MB 231 [cont'd]. As for the experimental part:
(§2) FIG. 3 is a table depicting the binding of the purified Fabs to cells expressing FZD7 (flow cytometry). Small scale Fabs were assayed for binding to full-length FZD7 receptor to an over-expression line in MDA MB 231 cells. In parallel, Fabs were assayed for binding to endogenous receptor expressed on the MDA MB 231 cells. Cells were harvested using an EDTA solution, blocked in 2% FBS/PBS (stain buffer), and stained with 200 nM Fab for 30 min on ice. Cells were washed two times with stain buffer and incubated with anti-F(ab′)₂-APC secondary antibody (Jackson Immuno) at 1:1000 for 15 minutes on ice. All antibodies were diluted in stain buffer. Cells were washed three times with stain buffer and then fixed with 1% paraformaldehye for analysis by flow cytometry. […] The percent of the cell population within the positive gates is indicated.
Background: Flow cytometry measures light scatter and fluorescence of single cells or particles in a stream.

Assay [4] deals with T1, recombinant Frizzled receptor 7 (FZD7) …. The assay can be described thus: ELISA, 10ug/ml (200nM) Fab [cont'd]. The procedure: as §1
Assay [5] concerns the target T2, Fc control protein. The assay can be described thus: ELISA, 10ug/ml (200nM) Fab [cont'd]. The procedure:
as §1

The target of assay [6] is T3, FZD7 receptor expressed on cells …. The assay can be described thus: flow cytometry, 200 nM Fab, FZD7 over-expression line (MDA MB 231) [cont'd]. As for the experimental part: as §2

Here are results for seven molecules from patent publication US20160194394A1 (GOVERNING COUNCIL OF THE UNIVERSITY OF TORONTO, published 2016).

B1: B2 (Fab)
light: DIQMTQSPSSLSASVGDRVTITCRASQSVSSAVAWYQQKPGKAPKLLIYSASSLYSGVPSRFSGSRSGTDFTLTISSLQPEDFATYYCQQAYAYLITFGQGTKVEIKRTVAAPSVFIFPPSDSQLKSGTASVVCLLNNFYPREAKVQWKVDNALQSGNSQESVTEQDSKDSTYSLSSTLTLSKADYEKHKVYACEVTHQGLSSPVTKSFNRGECGGS
heavy: EVQLVESGGGLVQPGGSLRLSCAASGFNISYSSMHWVRQAPGKGLEWVASISSSYGYTYYADSVKGRFTISADTSKNTAYLQMNSLRAEDTAVYYCARSGGHFYYWYVAAAMDYWGQGTLVTVSSASTKGPSVFPLAPSSKSTSGGTAALGCLVKDYFPEPVTVSWNSGALTSGVHTFPAVLQSSGLYSLSSVVTVPSSSLGTQTYICNVNHKPSNTKVDKKVEPKSC
notes: selection round 2; not the round 3 clone B2 (f33); also called Fzd7-R2-B2
On to B1, for which the “OD 450” value is 3.19 in assay [1], 0.06 in the assay with Fc control protein [2], 3.18 in assay [4] and 0.13 with Fc control protein [5]. The “% population within the positive gate” value in assay [3] is 7.1%; in assay [6] it was 86.8%.

B2: C12 (Fab)
light: DIQMTQSPSSLSASVGDRVTITCRASQSVSSAVAWYQQKPGKAPKLLIYSASSLYSGVPSRFSGSRSGTDFTLTISSLQPEDFATYYCQQSSYSLITFGQGTKVEIKRTVAAPSVFIFPPSDSQLKSGTASVVCLLNNFYPREAKVQWKVDNALQSGNSQESVTEQDSKDSTYSLSSTLTLSKADYEKHKVYACEVTHQGLSSPVTKSFNRGECGGS
heavy: EVQLVESGGGLVQPGGSLRLSCAASGFNLSYSYMHWVRQAPGKGLEWVASIYSSYGYTSYADSVKGRFTISADTSKNTAYLQMNSLRAEDTAVYYCARYYGWAYYYSYFPAWAGGGIDYWGQGTLVTVSSASTKGPSVFPLAPSSKSTSGGTAALGCLVKDYFPEPVTVSWNSGALTSGVHTFPAVLQSSGLYSLSSVVTVPSSSLGTQTYICNVNHKPSNTKVDKKVEPKSC
notes: selection round 2; same four CDRs as Fzd7-R3-B2 (f33); also called Fzd7-R2-C12
Regarding B2, the “OD 450” value worked out at 2.87 in assay [1], 0.05 in the assay with Fc control protein [2], 3.15 in assay [4] and 0.07 in the assay with Fc control protein [5]. The “% population within the positive gate” value in assay [3] came to 11.9%; in assay [6], 86.9%.

B3: B7 (Fab)
light: DIQMTQSPSSLSASVGDRVTITCRASQSVSSAVAWYQQKPGKAPKLLIYSASSLYSGVPSRFSGSRSGTDFTLTISSLQPEDFATYYCQQAYYPLFTFGQGTKVEIKRTVAAPSVFIFPPSDSQLKSGTASVVCLLNNFYPREAKVQWKVDNALQSGNSQESVTEQDSKDSTYSLSSTLTLSKADYEKHKVYACEVTHQGLSSPVTKSFNRGECGGS
heavy: EVQLVESGGGLVQPGGSLRLSCAASGFNISYSSMHWVRQAPGKGLEWVASIYPSYGYTSYADSVKGRFTISADTSKNTAYLQMNSLRAEDTAVYYCARVYWSSSYWAGGYWVGSAFDYWGQGTLVTVSSASTKGPSVFPLAPSSKSTSGGTAALGCLVKDYFPEPVTVSWNSGALTSGVHTFPAVLQSSGLYSLSSVVTVPSSSLGTQTYICNVNHKPSNTKVDKKVEPKSC
notes: selection round 3; also called Fzd7-R3-B7
In the case of B3, the “OD 450” value in assay [1] stood at 2.12; with Fc control protein [2], 0.06; in assay [4] it was 3.06; in the assay with Fc control protein [5] it was 0.07. Moreover, the “% population within the positive gate” value was 0.7% in assay [3] and 80.1% in assay [6].

B4: C1 (Fab)
light: DIQMTQSPSSLSASVGDRVTITCRASQSVSSAVAWYQQKPGKAPKLLIYSASSLYSGVPSRFSGSRSGTDFTLTISSLQPEDFATYYCQQYGHYLITFGQGTKVEIKRTVAAPSVFIFPPSDSQLKSGTASVVCLLNNFYPREAKVQWKVDNALQSGNSQESVTEQDSKDSTYSLSSTLTLSKADYEKHKVYACEVTHQGLSSPVTKSFNRGECGGS
heavy: EVQLVESGGGLVQPGGSLRLSCAASGFNLYSYSMHWVRQAPGKGLEWVASISSYYGSTYYADSVKGRFTISADTSKNTAYLQMNSLRAEDTAVYYCARAHGSSPGWYYAPYAGGGLDYWGQGTLVTVSSASTKGPSVFPLAPSSKSTSGGTAALGCLVKDYFPEPVTVSWNSGALTSGVHTFPAVLQSSGLYSLSSVVTVPSSSLGTQTYICNVNHKPSNTKVDKKVEPKSC
notes: selection round 2; also called Fzd7-R2-C1
B4: the “OD 450” value was 3.15 in assay [1], 0.06 with Fc control protein [2], 3.19 in assay [4] and 0.14 with Fc control protein [5]. For the same molecule, the “% population within the positive gate” value in assay [3] turned out to be 66.5%; in assay [6] it was 87.3%.

B5: D11 (Fab)
light: DIQMTQSPSSLSASVGDRVTITCRASQSVSSAVAWYQQKPGKAPKLLIYSASSLYSGVPSRFSGSRSGTDFTLTISSLQPEDFATYYCQQYFPSGLITFGQGTKVEIKRTVAAPSVFIFPPSDSQLKSGTASVVCLLNNFYPREAKVQWKVDNALQSGNSQESVTEQDSKDSTYSLSSTLTLSKADYEKHKVYACEVTHQGLSSPVTKSFNRGECGGS
heavy: EVQLVESGGGLVQPGGSLRLSCAASGFNISYSYMHWVRQAPGKGLEWVASISPSSGYTSYADSVKGRFTISADTSKNTAYLQMNSLRAEDTAVYYCARSVSWWYSWWSWGMDYWGQGTLVTVSSASTKGPSVFPLAPSSKSTSGGTAALGCLVKDYFPEPVTVSWNSGALTSGVHTFPAVLQSSGLYSLSSVVTVPSSSLGTQTYICNVNHKPSNTKVDKKVEPKSC
notes: selection round 3; also called Fzd7-R3-D11
B5: the “OD 450” value was 1.42 in assay [1], 0.06 in the assay with Fc control protein [2], 2.79 in assay [4] and 0.15 with Fc control protein [5]. Also, the “% population within the positive gate” value in assay [3] came out at 1.2%; in assay [6] it was 81%.

B6: F3 (Fab)
light: DIQMTQSPSSLSASVGDRVTITCRASQSVSSAVAWYQQKPGKAPKLLIYSASSLYSGVPSRFSGSRSGTDFTLTISSLQPEDFATYYCQQGGHYWLITFGQGTKVEIKRTVAAPSVFIFPPSDSQLKSGTASVVCLLNNFYPREAKVQWKVDNALQSGNSQESVTEQDSKDSTYSLSSTLTLSKADYEKHKVYACEVTHQGLSSPVTKSFNRGECGGS
heavy: EVQLVESGGGLVQPGGSLRLSCAASGFNISYSSMHWVRQAPGKGLEWVASISSSYGYTSYADSVKGRFTISADTSKNTAYLQMNSLRAEDTAVYYCARSYYGYYVGYGYSSWSGSGMDYWGQGTLVTVSSASTKGPSVFPLAPSSKSTSGGTAALGCLVKDYFPEPVTVSWNSGALTSGVHTFPAVLQSSGLYSLSSVVTVPSSSLGTQTYICNVNHKPSNTKVDKKVEPKSC
notes: selection round 3; also called Fzd7-R3-F3
With B6, the “OD 450” value in assay [1] came out at 2.35; with Fc control protein [2], 0.06; in assay [4], 2.97; in the assay with Fc control protein [5], 0.07. The “% population within the positive gate” value in assay [3] worked out at 1%; in assay [6] it was 82.5%.

B7: E9 (Fab)
light: DIQMTQSPSSLSASVGDRVTITCRASQSVSSAVAWYQQKPGKAPKLLIYSASSLYSGVPSRFSGSRSGTDFTLTISSLQPEDFATYYCQQAVYHALITFGQGTKVEIKRTVAAPSVFIFPPSDSQLKSGTASVVCLLNNFYPREAKVQWKVDNALQSGNSQESVTEQDSKDSTYSLSSTLTLSKADYEKHKVYACEVTHQGLSSPVTKSFNRGECGGS
heavy: EVQLVESGGGLVQPGGSLRLSCAASGFNIYYSSMHWVRQAPGKGLEWVASISSYSSSTYYADSVKGRFTISADTSKNTAYLQMNSLRAEDTAVYYCARSAVVHYPAGYWVYWGWYAFDYWGQGTLVTVSSASTKGPSVFPLAPSSKSTSGGTAALGCLVKDYFPEPVTVSWNSGALTSGVHTFPAVLQSSGLYSLSSVVTVPSSSLGTQTYICNVNHKPSNTKVDKKVEPKSC
notes: selection round 3; also called Fzd7-R3-E9
Take B7: the “OD 450” value in assay [1] came out at 3.09; with Fc control protein [2], 0.07; in assay [4] it was 3.2; with Fc control protein [5], 0.1. Moreover, the “% population within the positive gate” value in assay [3] was 96.6%; in assay [6] it was 87.1%.
